According to publication PMC2853112:

Assays:
MjNep1 [1] = target: T1, MjNep1 (Methanocaldococcus jannaschii, UniProt Q57977 1-205); assay: fluorescence quenching
MjNep1 [2] = target: T1, MjNep1; assay: NMR 15N-HSQC titration

T1 sequence (Q57977 whole entry): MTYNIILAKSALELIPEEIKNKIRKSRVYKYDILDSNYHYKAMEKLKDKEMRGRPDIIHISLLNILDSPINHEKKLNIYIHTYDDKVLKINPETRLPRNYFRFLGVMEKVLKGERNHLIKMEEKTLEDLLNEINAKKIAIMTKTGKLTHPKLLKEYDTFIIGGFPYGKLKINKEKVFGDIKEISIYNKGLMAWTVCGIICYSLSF

Row | Binder | Kd (MjNep1 [1]) [nM] | Kd (MjNep1 [2]) [nM]
1 | UUGGAUUCAACGCCGG (ssRNA) [RNA 7 (complete hairpin loop 35)] | 3 ± 1 | 
2 | UUCAACGC (ssRNA) [RNA 4] | 77 ± 27 | 
3 | GAUUCAACGCC (ssRNA, pseudouridine at position 4 (nt 914)) [RNA 8] | 11 ± 4 | 
4 | UCAACGCC (ssRNA, pseudouridine at position 1 (nt 914)) [RNA 12] | 7 ± 2 | 
5 | GGAUUCAACGCC (ssRNA) [RNA 6] | 7 ± 2 | 
6 | GAUUCAACGCC (ssRNA, pseudouridine at position 3 (nt 913)) [RNA 9] | 2 ± 1 | 
7 | UUCAAC (ssRNA) [RNA 1] |  | > 1000
8 | GGAUUCAAC (ssRNA) [RNA 3] | 1650 ± 380 | 
9 | UUCAACGCC (ssRNA) [RNA 5] | 8 ± 5 | 
